According to PMC7183857:
Like-named read-outs stand apart in the source and are kept apart here.

Assays:
Assay in all cases: co-sedimentation
[1] = molecular target: A14C/E45C disulfide-crosslinked CA tubes (HIV-1)
[2] = molecular target: CA_(14C/45C/E71A) tubes (HIV-1)
[3] = molecular target: CA_(14C/45C/E213A) tubes (HIV-1)
[4] = molecular target: CA_(14C/45C/E75A) tubes (HIV-1)
[5] = molecular target: A14C/E45C disulfide-crosslinked CA tubes (HIV-1); remark: listed apart in the source

Substance: MxB_(1–35)-MBPdi (from UniProt P20592 1-35)
- percent binding [1]: 80%
- percent bound [1]: > 90%
- percent co-pelleted [1]: > 90%
- binding as percent of WT CA tubes [2]: 60 % of WT
- binding as percent of WT CA tubes [3]: 40 % of WT
- binding as percent of WT CA tubes [4]: 60 % of WT
- percent binding [5]: 20%
